The record followed here is article PMC6336319, “EBNA3C facilitates RASSF1A downregulation through ubiquitin-mediated degradation and promoter hypermethylation to drive B-cell proliferation” (PLoS Pathogens, 2019).

This experiment has as its target T1, Flag-tagged EBNA3C 366-620 (Epstein-Barr virus, UniProt P03204 366-620).
T1 construct: also called pA3F-EBNA3C 366–620; EBNA3C 366-620aa; source: Saos-2, transfected, in lysate
T1 sequence: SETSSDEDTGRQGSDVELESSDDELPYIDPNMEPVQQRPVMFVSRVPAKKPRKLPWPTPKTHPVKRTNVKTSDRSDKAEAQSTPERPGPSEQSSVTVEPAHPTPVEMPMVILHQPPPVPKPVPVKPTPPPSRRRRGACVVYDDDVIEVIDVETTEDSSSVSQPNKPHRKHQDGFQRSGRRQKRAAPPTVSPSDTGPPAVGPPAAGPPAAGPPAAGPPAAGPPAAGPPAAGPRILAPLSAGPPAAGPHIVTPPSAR
The experiment in a line: co-IP; Saos-2 cells co-transfected, lysed 48 h later in RIPA buffer (1% NP-40, 10 mM Tris pH 8.0, 2 mM EDTA, 150 mM NaCl); immunoprecipitation with 1 ug anti-Flag antibody, overnight at 4 °C; western blot with anti-Flag and anti-Myc. The note with it: partners not purified. For orientation: A western blot detects proteins with antibodies after separation by electrophoresis.

B1: Myc-tagged full-length RASSF1A (Ras association domain family isoform 1A) (natural protein, human, UniProt Q9NS23-2 1-340, looked up)
chain: MSGEPELIELRELAPAGRAGKGRTRLERANALRIARGTACNPTRQLVPGRGHRFQPAGPATHTWCDLCGDFIWGVVRKGLQCAHCKFTCHYRCRALVCLDCCGPRDLGWEPAVERDTNVDEPVEWETPDLSQAEIEQKIKEYNAQINSNLFMSLNKDGSYTGFIKVQLKLVRPVSVPSSKKPPSLQDARRGPGRGTSVRRRTSFYLPKDAVKHLHVLSRTRAREVIEALLRKFLVVDDPRKFALFERAERHGQVYLRKLLDDEQPLRLRLLAGPSDKALSFVLKENDSGEVNWDAFSMPELHNFLRILQREEEEHLRQILQKYSYCRQKIQEALHACPLG
notes: RASSF1A (Ras association domain family isoform 1A), full length, amplified from total RNA by RT-PCR and cloned into pA3M; also called Myc-RASSF1A; pA3M-RASSF1A; source: Saos-2, transfected, in lysate
For B1, the “signal relative to EBNA3C residues 1-365” value is about 50%.
